Measurements: the Human Domainome abundance scans (Beltran et al. 2025)

B1: TGF-beta-activated kinase 1 and MAP3K7-binding protein 3, residues 12 to 50; numbered along this chain, Q8N5C8 (parent)
chain: VLHDLRQRFPEIPEGVVSQCMLQNNNNLEACCRALSQES

Variants of: B1
Test: abundance fitness (aPCA) (normalised: wild type 0, dead -1); higher = more abundant; growth selection in yeast, the domain comes from the species named
Conditions: Homo sapiens

Abundance fitness: each site, then its substitutions
E14: Y -0.256, G -0.829, C -0.613, P -0.143, S -0.416, K -0.831, H 0.117, I -0.246, Q -0.255, N -0.738, M -0.377, V -0.24, L -0.142, R -0.668, T -0.549, D -0.308, F -1.02
V16: F -0.71, M -0.073, N -0.552, P -0.927, D -0.264, W -0.683, Y 0.122, L -0.228, E -0.105, R 0.032, K -0.114, T -0.16, Q -0.155, H -0.372, S -0.58, C -0.638, G -0.711, A -0.297
M21: D -0.691, E -0.695, V -0.349, S -0.718, F -0.487, Q -0.937, R -0.872, L -0.015, A -0.347, H -0.82, P -0.68, Y -0.189, G -0.811, W -0.732, T -1.17
E11: P -0.764, N -0.115, T -0.214, L -0.416, G -0.13, V -0.726, W -0.126, D 0.111, K -0.535, A -0.511, Q -0.166, M -0.213, H -0.11, R -0.444, S -0.189, Y -0.324, F -0.479
Q19: V -0.273, A 0.186, P -0.547, L -0.1, N -0.019, M -0.004, R 0.135, K 0.139, S -0.039, I 0.384, T -0.077, E 0.128, H -0.175, C -0.114, Y -0.345, W -0.135
N27: G -0.78, P -0.856, V -0.764, C -0.831, W -0.835, Q -0.398, R -0.607, T -1.01, L -1.12, A -0.643, K -0.651, S -0.478, H -0.605
P13: G -0.666, S -0.42, Y -0.926, K -0.51, H -0.694, D -0.22, T -0.767, Q -0.62, M -0.517, W -0.771, R -0.782, I -0.452, C -0.766, V -0.774, A -0.513
Q23: R -0.06, V -0.167, M -0.105, H 0.168, G -0.722, K -0.189, A 0.107, S -0.206, P -0.787, T -0.275, N -0.046, I -0.649, D 0.271, L -0.108, E 0.215
L28: Q -0.527, D -0.829, P -0.313, G -0.605, W 0.007, T -0.684, E -0.471, S -0.629, C -0.587, H -0.285, A -0.484, V -0.221, R -0.437, M -0.262
C32: A -0.21, F -0.579, E -0.176, G -0.575, L -0.291, D -0.484, H -0.171
L22: A 0.173, S -0.045, E 0.164, D -0.06, M 0.041, V 0.012, G -0.266, W -0.292, C -0.377, H 0.023, Y -0.213, Q 0.057, T 0.026, F -0.188, K 0.264, R 0.152
P10: S -0.595, E -0.758, W -0.962, K -1.07, D -0.672, Q -0.956, M -0.806, R -0.96, L -1.16, G -0.78, V -0.921, A -0.943, T -0.906
F9: Y -0.04
V17: H -0.7, M -0.395, I 0.266, K -0.955, T -1.07, G -0.795, A -0.647, P -0.568, Q -0.81, C -0.566, F -0.65, S -0.815, Y -0.811, D -0.624, L 0.084, N -0.468, R -0.836
S18: D -0.434, P -0.939, H 0.177, Q 0.268, Y -0.196, A 0.13, L 0.23, T 0.136, I -0.035, F -0.17, E 0.191, K 0.278, G -0.399, R 0.345, V 0.218, C -0.336, M 0.222
A30: W -0.794, V -0.55, G -0.599, I -0.838, S -0.402, T -0.568, Q -0.178, K -0.214, R -0.348, H -0.248, M -0.178, P -0.716, E -0.081, N -0.174, C -0.684
N24: G -0.878, K -0.843, Q -0.623, R -1.08, L -0.73, V -0.894, M -0.679, T -0.871, P -0.989, E -0.329, H 0.178, A -0.747, S -0.848, C -0.351, W -0.638
N25: W -0.819, P -0.615, G -0.108, R -0.39, M -0.548, T -0.788, Q -0.306, A -0.425, C -0.5, V -0.904, S -0.365, D -0.015
C20: A 0.173, L -0.06, D 0.048, T 0.063, Y 0.007, P -0.51, E -0.082, S -0.103, G -0.26, I 0.109, M 0.028, W -0.37, Q -0.175, R -0.405, F -0.096, H -0.576
I12: H -0.209, R -0.788, V -0.042, T -0.276, Q -0.43, W -0.737, G -0.981, S -0.825, A -0.533, K -0.577, M -0.12, C -0.467, L -0.094, D -1.04, E -0.619
N26: R -0.746, W -0.808, V -0.816, E -0.475, K -0.799, S -0.289, A -0.498, G -0.144, M -0.317, P -1.32, L -0.685, D -0.435, C -0.365, F 0.164, H -0.316
E29: V -0.895, L -0.201
C31: M -0.732, T -0.219, P -0.64, R -0.79, D 0.122, S -0.545, I -0.718, Q -0.786, Y -0.895, K -0.513, A -0.551, E -0.467, G -0.555, V -0.495, W -0.965, L -0.914
G15: A 0.153, S 0.122, N 0.05, E 0.281, C 0.03, H 0.25, R 0.074, L -0.162, W 0.087, F -0.138, P 0.003, M -0.079, K 0.135, Y 0.139, I -0.154, D 0.217, V -0.016
